Measured values published in paper PMC2933578, “Mutational analysis of an archaeal minichromosome maintenance protein exterior hairpin reveals critical residues for helicase activity and DNA binding” (BMC Molecular Biology, 2010).

Legend:
[1] = biological target: the molecule itself; assay: SEC; Superose 6 size exclusion column, 250 mM NaCl; ~0.5 mg of protein; markers ferritin (440 kD) and aldolase (158 kD); self-association to the hexamer
[2] = substrate: Nc1ncnc2c1ncn2[C@@H]1O[C@H](COP(=O)(O)OP(=O)(O)OP(=O)(O)O)[C@@H](O)[C@H]1O; assay: EnzChek phosphate release ATPase assay; assay type: biochemical, Saccharolobus solfataricus; conditions: no DNA, per monomeric MCM subunit, unit nM
Excerpt: EnzChek phosphate release ATPase assay on ssoMCM

[3] = mutant M1: text gives lysine K323, Table 2 prints R323A

B1: ssoMCM mutant M6 (D327A) (enzyme, Sulfolobus solfataricus, UniProt Q9UXG1 1-686, looked up)
chain: MEIPSKQIDYRDVFIEFLTTFKGNNNQNKYIERINELVAYRKKSLIIEFSDVLSFNENLAYEIINNTKIILPILEGALYDHILQLDPTYQRDIEKVHVRIVGIPRVIELRKIRSTDIGKLITIDGILVKVTPVKERIYKATYKHIHPDCMQEFEWPEDEEMPEVLEMPTICPKCGKPGQFRLIPEKTKLIDWQKAVIQERPEEVPSGQLPRQLEIILEDDLVDSARPGDRVKVTGILDIKQDSPVKRGSRAVFDIYMKVSSIEVSQKVLDEVIISEEDEKKIKDLAKDPWIRDRIISSIAPSIYGHWELKEALALALFGGVPKVLEATRIRGDIHILIIGDPGTAKSQMLQFISRVAPRAVYTTGKGSTAAGLTAAVVREKGTGEYYLEAGALVLADGGIAVIDEIDKMRDEDRVAIHEAMEQQTVSIAKAGIVAKLNARAAVIAAGNPKFGRYISERPVSDNINLPPTILSRFDLIFILKDQPGEQDRELANYILDVHSGKSTKNIIDIDTLRKYIAYARKYVTPKITSEAKNLITDFFVEMRKKSSETPDSPILITPRQLEALIRISEAYAKMALKAEVTREDAERAINIMRLFLESVGVDMESGKIDIDTIMTGKPKSAREKMMKIIEIIDSLAVSSECAKVKDILKEAQQVGIEKSNIEKLLTDMRKSGIIYEAKPECYKKV
notes: MCM of Sulfolobus solfataricus with D327A; source: cloned and purified (Resource Q anion exchange, size-exclusion chromatography) as described previously [15]
With B1 the “stoichiometry N” value [1] was 6, the Km ([2]; mutant M6) was 100 ± 20 nM and the kcat ([2]; mutant M6) was 0.0383 ± 0.00167 s⁻¹.

B2: Sulfolobus solfataricus MCM (minichromosome maintenance protein), wild type (enzyme, UniProt Q9UXG1 1-686, looked up)
chain: MEIPSKQIDYRDVFIEFLTTFKGNNNQNKYIERINELVAYRKKSLIIEFSDVLSFNENLAYEIINNTKIILPILEGALYDHILQLDPTYQRDIEKVHVRIVGIPRVIELRKIRSTDIGKLITIDGILVKVTPVKERIYKATYKHIHPDCMQEFEWPEDEEMPEVLEMPTICPKCGKPGQFRLIPEKTKLIDWQKAVIQERPEEVPSGQLPRQLEIILEDDLVDSARPGDRVKVTGILDIKQDSPVKRGSRAVFDIYMKVSSIEVSQKVLDEVIISEEDEKKIKDLAKDPWIRDRIISSIAPSIYGHWELKEALALALFGGVPKVLEDTRIRGDIHILIIGDPGTAKSQMLQFISRVAPRAVYTTGKGSTAAGLTAAVVREKGTGEYYLEAGALVLADGGIAVIDEIDKMRDEDRVAIHEAMEQQTVSIAKAGIVAKLNARAAVIAAGNPKFGRYISERPVSDNINLPPTILSRFDLIFILKDQPGEQDRELANYILDVHSGKSTKNIIDIDTLRKYIAYARKYVTPKITSEAKNLITDFFVEMRKKSSETPDSPILITPRQLEALIRISEAYAKMALKAEVTREDAERAINIMRLFLESVGVDMESGKIDIDTIMTGKPKSAREKMMKIIEIIDSLAVSSECAKVKDILKEAQQVGIEKSNIEKLLTDMRKSGIIYEAKPECYKKV
notes: MCM of Sulfolobus solfataricus, wild type; also called ssoMCM; WT; source: cloned and purified (Resource Q anion exchange, size-exclusion chromatography) as described previously [15]
In the case of B2, the “stoichiometry N” value [1] is reported as 6, the Km [2] is reported as 170 ± 20 nM and the kcat [2] is reported as 0.0517 ± 0.00167 s⁻¹.

B3: ssoMCM mutant M1 (K323A; printed R323A in Table 2) (enzyme, Sulfolobus solfataricus, UniProt Q9UXG1 1-686, looked up)
chain: MEIPSKQIDYRDVFIEFLTTFKGNNNQNKYIERINELVAYRKKSLIIEFSDVLSFNENLAYEIINNTKIILPILEGALYDHILQLDPTYQRDIEKVHVRIVGIPRVIELRKIRSTDIGKLITIDGILVKVTPVKERIYKATYKHIHPDCMQEFEWPEDEEMPEVLEMPTICPKCGKPGQFRLIPEKTKLIDWQKAVIQERPEEVPSGQLPRQLEIILEDDLVDSARPGDRVKVTGILDIKQDSPVKRGSRAVFDIYMKVSSIEVSQKVLDEVIISEEDEKKIKDLAKDPWIRDRIISSIAPSIYGHWELKEALALALFGGVPAVLEDTRIRGDIHILIIGDPGTAKSQMLQFISRVAPRAVYTTGKGSTAAGLTAAVVREKGTGEYYLEAGALVLADGGIAVIDEIDKMRDEDRVAIHEAMEQQTVSIAKAGIVAKLNARAAVIAAGNPKFGRYISERPVSDNINLPPTILSRFDLIFILKDQPGEQDRELANYILDVHSGKSTKNIIDIDTLRKYIAYARKYVTPKITSEAKNLITDFFVEMRKKSSETPDSPILITPRQLEALIRISEAYAKMALKAEVTREDAERAINIMRLFLESVGVDMESGKIDIDTIMTGKPKSAREKMMKIIEIIDSLAVSSECAKVKDILKEAQQVGIEKSNIEKLLTDMRKSGIIYEAKPECYKKV
notes: MCM of Sulfolobus solfataricus with the mutation of M1; also called K323 (M1); source: cloned and purified (Resource Q anion exchange, size-exclusion chromatography) as described previously [15]
With B3 the “stoichiometry N” value [1] was 6, the Km [2, 3] was 140 ± 30 nM and the kcat [2, 3] was 0.03 ± 0.00167 s⁻¹.

B4: ssoMCM mutant M10 (K346A, Walker A mutant) (enzyme, Sulfolobus solfataricus, UniProt Q9UXG1 1-686, looked up)
chain: MEIPSKQIDYRDVFIEFLTTFKGNNNQNKYIERINELVAYRKKSLIIEFSDVLSFNENLAYEIINNTKIILPILEGALYDHILQLDPTYQRDIEKVHVRIVGIPRVIELRKIRSTDIGKLITIDGILVKVTPVKERIYKATYKHIHPDCMQEFEWPEDEEMPEVLEMPTICPKCGKPGQFRLIPEKTKLIDWQKAVIQERPEEVPSGQLPRQLEIILEDDLVDSARPGDRVKVTGILDIKQDSPVKRGSRAVFDIYMKVSSIEVSQKVLDEVIISEEDEKKIKDLAKDPWIRDRIISSIAPSIYGHWELKEALALALFGGVPKVLEDTRIRGDIHILIIGDPGTAASQMLQFISRVAPRAVYTTGKGSTAAGLTAAVVREKGTGEYYLEAGALVLADGGIAVIDEIDKMRDEDRVAIHEAMEQQTVSIAKAGIVAKLNARAAVIAAGNPKFGRYISERPVSDNINLPPTILSRFDLIFILKDQPGEQDRELANYILDVHSGKSTKNIIDIDTLRKYIAYARKYVTPKITSEAKNLITDFFVEMRKKSSETPDSPILITPRQLEALIRISEAYAKMALKAEVTREDAERAINIMRLFLESVGVDMESGKIDIDTIMTGKPKSAREKMMKIIEIIDSLAVSSECAKVKDILKEAQQVGIEKSNIEKLLTDMRKSGIIYEAKPECYKKV
notes: MCM of Sulfolobus solfataricus with K346A (Walker A lysine); source: cloned and purified (Resource Q anion exchange, size-exclusion chromatography) as described previously [15]
For B4, the “stoichiometry N” value [1] was 6.

B5: ssoMCM mutant M8 (R329A) (enzyme, Sulfolobus solfataricus, UniProt Q9UXG1 1-686, looked up)
chain: MEIPSKQIDYRDVFIEFLTTFKGNNNQNKYIERINELVAYRKKSLIIEFSDVLSFNENLAYEIINNTKIILPILEGALYDHILQLDPTYQRDIEKVHVRIVGIPRVIELRKIRSTDIGKLITIDGILVKVTPVKERIYKATYKHIHPDCMQEFEWPEDEEMPEVLEMPTICPKCGKPGQFRLIPEKTKLIDWQKAVIQERPEEVPSGQLPRQLEIILEDDLVDSARPGDRVKVTGILDIKQDSPVKRGSRAVFDIYMKVSSIEVSQKVLDEVIISEEDEKKIKDLAKDPWIRDRIISSIAPSIYGHWELKEALALALFGGVPKVLEDTAIRGDIHILIIGDPGTAKSQMLQFISRVAPRAVYTTGKGSTAAGLTAAVVREKGTGEYYLEAGALVLADGGIAVIDEIDKMRDEDRVAIHEAMEQQTVSIAKAGIVAKLNARAAVIAAGNPKFGRYISERPVSDNINLPPTILSRFDLIFILKDQPGEQDRELANYILDVHSGKSTKNIIDIDTLRKYIAYARKYVTPKITSEAKNLITDFFVEMRKKSSETPDSPILITPRQLEALIRISEAYAKMALKAEVTREDAERAINIMRLFLESVGVDMESGKIDIDTIMTGKPKSAREKMMKIIEIIDSLAVSSECAKVKDILKEAQQVGIEKSNIEKLLTDMRKSGIIYEAKPECYKKV
notes: MCM of Sulfolobus solfataricus with R329A; source: cloned and purified (Resource Q anion exchange, size-exclusion chromatography) as described previously [15]
In the case of B5, the “stoichiometry N” value [1] is reported as 6, the Km ([2]; mutant M8) is reported as 170 ± 40 nM and the kcat ([2]; mutant M8) is reported as 0.03 ± 0.00167 s⁻¹.

B6: ssoMCM mutant M2 (V324A) (enzyme, Sulfolobus solfataricus, UniProt Q9UXG1 1-686, looked up)
chain: MEIPSKQIDYRDVFIEFLTTFKGNNNQNKYIERINELVAYRKKSLIIEFSDVLSFNENLAYEIINNTKIILPILEGALYDHILQLDPTYQRDIEKVHVRIVGIPRVIELRKIRSTDIGKLITIDGILVKVTPVKERIYKATYKHIHPDCMQEFEWPEDEEMPEVLEMPTICPKCGKPGQFRLIPEKTKLIDWQKAVIQERPEEVPSGQLPRQLEIILEDDLVDSARPGDRVKVTGILDIKQDSPVKRGSRAVFDIYMKVSSIEVSQKVLDEVIISEEDEKKIKDLAKDPWIRDRIISSIAPSIYGHWELKEALALALFGGVPKALEDTRIRGDIHILIIGDPGTAKSQMLQFISRVAPRAVYTTGKGSTAAGLTAAVVREKGTGEYYLEAGALVLADGGIAVIDEIDKMRDEDRVAIHEAMEQQTVSIAKAGIVAKLNARAAVIAAGNPKFGRYISERPVSDNINLPPTILSRFDLIFILKDQPGEQDRELANYILDVHSGKSTKNIIDIDTLRKYIAYARKYVTPKITSEAKNLITDFFVEMRKKSSETPDSPILITPRQLEALIRISEAYAKMALKAEVTREDAERAINIMRLFLESVGVDMESGKIDIDTIMTGKPKSAREKMMKIIEIIDSLAVSSECAKVKDILKEAQQVGIEKSNIEKLLTDMRKSGIIYEAKPECYKKV
notes: MCM of Sulfolobus solfataricus with V324A; source: cloned and purified (Resource Q anion exchange, size-exclusion chromatography) as described previously [15]
With B6 the “stoichiometry N” value [1] was 6, the Km ([2]; mutant M2) was 120 ± 20 nM and the kcat ([2]; mutant M2) was 0.04 ± 0.00167 s⁻¹.

B7: ssoMCM mutant M5 (E326A) (enzyme, Sulfolobus solfataricus, UniProt Q9UXG1 1-686, looked up)
chain: MEIPSKQIDYRDVFIEFLTTFKGNNNQNKYIERINELVAYRKKSLIIEFSDVLSFNENLAYEIINNTKIILPILEGALYDHILQLDPTYQRDIEKVHVRIVGIPRVIELRKIRSTDIGKLITIDGILVKVTPVKERIYKATYKHIHPDCMQEFEWPEDEEMPEVLEMPTICPKCGKPGQFRLIPEKTKLIDWQKAVIQERPEEVPSGQLPRQLEIILEDDLVDSARPGDRVKVTGILDIKQDSPVKRGSRAVFDIYMKVSSIEVSQKVLDEVIISEEDEKKIKDLAKDPWIRDRIISSIAPSIYGHWELKEALALALFGGVPKVLADTRIRGDIHILIIGDPGTAKSQMLQFISRVAPRAVYTTGKGSTAAGLTAAVVREKGTGEYYLEAGALVLADGGIAVIDEIDKMRDEDRVAIHEAMEQQTVSIAKAGIVAKLNARAAVIAAGNPKFGRYISERPVSDNINLPPTILSRFDLIFILKDQPGEQDRELANYILDVHSGKSTKNIIDIDTLRKYIAYARKYVTPKITSEAKNLITDFFVEMRKKSSETPDSPILITPRQLEALIRISEAYAKMALKAEVTREDAERAINIMRLFLESVGVDMESGKIDIDTIMTGKPKSAREKMMKIIEIIDSLAVSSECAKVKDILKEAQQVGIEKSNIEKLLTDMRKSGIIYEAKPECYKKV
notes: MCM of Sulfolobus solfataricus with E326A; source: cloned and purified (Resource Q anion exchange, size-exclusion chromatography) as described previously [15]
B7 was tested, and the “stoichiometry N” value [1] was 6.

B8: ssoMCM mutant M9 (R331A) (enzyme, Sulfolobus solfataricus, UniProt Q9UXG1 1-686, looked up)
chain: MEIPSKQIDYRDVFIEFLTTFKGNNNQNKYIERINELVAYRKKSLIIEFSDVLSFNENLAYEIINNTKIILPILEGALYDHILQLDPTYQRDIEKVHVRIVGIPRVIELRKIRSTDIGKLITIDGILVKVTPVKERIYKATYKHIHPDCMQEFEWPEDEEMPEVLEMPTICPKCGKPGQFRLIPEKTKLIDWQKAVIQERPEEVPSGQLPRQLEIILEDDLVDSARPGDRVKVTGILDIKQDSPVKRGSRAVFDIYMKVSSIEVSQKVLDEVIISEEDEKKIKDLAKDPWIRDRIISSIAPSIYGHWELKEALALALFGGVPKVLEDTRIAGDIHILIIGDPGTAKSQMLQFISRVAPRAVYTTGKGSTAAGLTAAVVREKGTGEYYLEAGALVLADGGIAVIDEIDKMRDEDRVAIHEAMEQQTVSIAKAGIVAKLNARAAVIAAGNPKFGRYISERPVSDNINLPPTILSRFDLIFILKDQPGEQDRELANYILDVHSGKSTKNIIDIDTLRKYIAYARKYVTPKITSEAKNLITDFFVEMRKKSSETPDSPILITPRQLEALIRISEAYAKMALKAEVTREDAERAINIMRLFLESVGVDMESGKIDIDTIMTGKPKSAREKMMKIIEIIDSLAVSSECAKVKDILKEAQQVGIEKSNIEKLLTDMRKSGIIYEAKPECYKKV
notes: MCM of Sulfolobus solfataricus with R331A; source: cloned and purified (Resource Q anion exchange, size-exclusion chromatography) as described previously [15]
For B8, the “stoichiometry N” value [1] was 6.
